Changes are numbered by the printed parent chain. Square brackets hold non-standard residues; d marks the D form. 1Nal = N[C@@H](Cc1cccc2ccccc12)C(=O)O; Tic = O=C(O)[C@@H]1Cc2ccccc2CN1; Cit = NC(=O)NCCC[C@H](N)C(=O)O
B1: PEG-peptide of SEQ ID NO 857 (peptide)
peptide: Ac-WVTHQLAGLLSQSGGVVRKNFVPTDVGPFAF-NH2
modifications: also: PEG-conjugated, in most cases at Lys25
B2: SEQ ID NO 859 (peptide)
peptide: Ac-WVTHRLAGLASRPGGVVRKNFVPTDVGPFAF-NH2
B3: SEQ ID NO 856 (peptide)
peptide: Ac-WVTHRLAGLLSQSGGVVRKNFVPTDVGPFAF-NH2
B4: PEG-peptide of SEQ ID NO 856 (peptide)
peptide: Ac-WVTHRLAGLLSQSGGVVRKNFVPTDVGPFAF-NH2
modifications: also: PEG-conjugated, in most cases at Lys25
B5: SEQ ID NO 861 (peptide)
peptide: WVTHXLAGLLSRSGGVVRKNFVPTDVGPFAF
modifications: Ac-WVTH[Cit]LAGLLSRSGGVVRKNFVPTDVGPFAF-NH2
B6: PEG-peptide of SEQ ID NO 861 (peptide)
peptide: B5 peptide
modifications: Ac-WVTH[Cit]LAGLLSRSGGVVRKNFVPTDVGPFAF-NH2; PEG-conjugated (Table 2C: in most cases at Lys^25)
B7: SEQ ID NO 866 (peptide)
peptide: B5 peptide with R12X
modifications: Ac-WVTH[hArg]LAGLLS[hArg]SGGVVRKNFVPTDVGPFAF-NH2
B8: SEQ ID NO 865 (peptide)
peptide: B5 peptide
modifications: Ac-WVTH[hArg]LAGLLSRSGGVVRKNFVPTDVGPFAF-NH2
B9: SEQ ID NO 862 (peptide)
peptide: B5 peptide with X5R, R12X
modifications: Ac-WVTHRLAGLLS[Cit]SGGVVRKNFVPTDVGPFAF-NH2
B10: PEG-peptide of SEQ ID NO 862 (peptide)
peptide: B5 peptide with X5R, R12X
modifications: Ac-WVTHRLAGLLS[Cit]SGGVVRKNFVPTDVGPFAF-NH2; PEG-conjugated (Table 2C: in most cases at Lys^25)
B11: SEQ ID NO 864 (peptide)
peptide: B5 peptide with X5R, R12X
modifications: Ac-WVTHRLAGLLS[hArg]SGGVVRKNFVPTDVGPFAF-NH2
B12: PEG-peptide of SEQ ID NO 865 (peptide)
peptide: B5 peptide
modifications: Ac-WVTH[hArg]LAGLLSRSGGVVRKNFVPTDVGPFAF-NH2; PEG-conjugated (Table 2C: in most cases at Lys^25)
B13: PEG-peptide of SEQ ID NO 866 (peptide)
peptide: B5 peptide with R12X
modifications: Ac-WVTH[hArg]LAGLLS[hArg]SGGVVRKNFVPTDVGPFAF-NH2; PEG-conjugated (Table 2C: in most cases at Lys^25)
B14: PEG-peptide of SEQ ID NO 864 (peptide)
peptide: B5 peptide with X5R, R12X
modifications: Ac-WVTHRLAGLLS[hArg]SGGVVRKNFVPTDVGPFAF-NH2; PEG-conjugated (Table 2C: in most cases at Lys^25)
B15: PEG-peptide of SEQ ID NO 859 (peptide)
peptide: Ac-WVTHRLAGLASRPGGVVRKNFVPTDVGPFAF-NH2
modifications: also: PEG-conjugated, in most cases at Lys25
B16: SEQ ID NO 948 (peptide)
peptide: WVTHXLAGLLSXSGGVVXKNFVXTDVGXFAX
modifications: Ac-WVTH[Cit]LAGLLS[Cit]SGGVV[hArg]KNFV[Oic]TDVG[Oic]FA[2-Nal]-NH2
B17: SEQ ID NO 871 (peptide)
peptide: B5 peptide with R12X, R18X
modifications: Ac-WVTH[Cit]LAGLLS[Cit]SGGVV[hArg]KNFVPTDVGPFAF-NH2
B18: SEQ ID NO 951 (peptide)
peptide: B16 peptide with X28P
modifications: Ac-WVTH[Cit]LAGLLS[Cit]SGGVV[hArg]KNFV[Oic]TDVGPFA[2-Nal]-NH2
B19: SEQ ID NO 954 (peptide)
peptide: B16 peptide with F21X, X23P
modifications: Ac-WVTH[Cit]LAGLLS[Cit]SGGVV[hArg]KN[2-Nal]VPTDVG[Oic]FA[2-Nal]-NH2
B20: SEQ ID NO 955 (peptide)
peptide: B16 peptide with F21X
modifications: Ac-WVTH[Cit]LAGLLS[Cit]SGGVV[hArg]KN[2-Nal]V[Oic]TDVG[Oic]FA[2-Nal]-NH2
B21: SEQ ID NO 950 (peptide)
peptide: B16 peptide with X28P, F29X, X31F
modifications: Ac-WVTH[Cit]LAGLLS[Cit]SGGVV[hArg]KNFV[Oic]TDVGP[Bip]AF-NH2
B22: PEG-peptide of SEQ ID NO 871 (peptide)
peptide: B5 peptide with R12X, R18X
modifications: Ac-WVTH[Cit]LAGLLS[Cit]SGGVV[hArg]KNFVPTDVGPFAF-NH2; PEG-conjugated (Table 2C: in most cases at Lys^25)
B23: SEQ ID NO 949 (peptide)
peptide: B16 peptide with X28P, F29X
modifications: Ac-WVTH[Cit]LAGLLS[Cit]SGGVV[hArg]KNFV[Oic]TDVGP[1-Nal]A[2-Nal]-NH2
B24: SEQ ID NO 857 (peptide)
peptide: Ac-WVTHQLAGLLSQSGGVVRKNFVPTDVGPFAF-NH2
B25: SEQ ID NO 868 (peptide)
peptide: Ac-WVTH[Cit]LAGLLSRPGGVVRKNFVPTDVGPFAF-NH2
SMILES: CC(=O)N[C@@H](Cc1c[nH]c2ccccc12)C(=O)N[C@H](C(=O)N[C@H](C(=O)N[C@@H](Cc1c[nH]cn1)C(=O)N[C@@H](CCCNC(N)=O)C(=O)N[C@@H](CC(C)C)C(=O)N[C@@H](C)C(=O)NCC(=O)N[C@@H](CC(C)C)C(=O)N[C@@H](CC(C)C)C(=O)N[C@@H](CO)C(=O)N[C@@H](CCCNC(=N)N)C(=O)N1CCC[C@H]1C(=O)NCC(=O)NCC(=O)N[C@H](C(=O)N[C@H](C(=O)N[C@@H](CCCNC(=N)N)C(=O)N[C@@H](CCCCN)C(=O)N[C@@H](CC(N)=O)C(=O)N[C@@H](Cc1ccccc1)C(=O)N[C@H](C(=O)N1CCC[C@H]1C(=O)N[C@H](C(=O)N[C@@H](CC(=O)O)C(=O)N[C@H](C(=O)NCC(=O)N1CCC[C@H]1C(=O)N[C@@H](Cc1ccccc1)C(=O)N[C@@H](C)C(=O)N[C@@H](Cc1ccccc1)C(N)=O)C(C)C)[C@@H](C)O)C(C)C)C(C)C)C(C)C)[C@@H](C)O)C(C)C
B26: PEG-peptide of SEQ ID NO 858 (peptide)
peptide: Ac-WVTHRLAGLLPRSGGVVRKNFVPTDVGPFAF-NH2
modifications: also: PEG-conjugated, in most cases at Lys25
B27: SEQ ID NO 957 (peptide)
peptide: Ac-WVTH[Cit]LAGLLS[Cit]SGGVVRKNFVPTDVG[Tic]FAF-NH2
B28: SEQ ID NO 869 (peptide)
peptide: Ac-WVTH[Cit]LAGLASRPGGVVRKNFVPTDVGPFAF-NH2
SMILES: CC(=O)N[C@@H](Cc1c[nH]c2ccccc12)C(=O)N[C@H](C(=O)N[C@H](C(=O)N[C@@H](Cc1c[nH]cn1)C(=O)N[C@@H](CCCNC(N)=O)C(=O)N[C@@H](CC(C)C)C(=O)N[C@@H](C)C(=O)NCC(=O)N[C@@H](CC(C)C)C(=O)N[C@@H](C)C(=O)N[C@@H](CO)C(=O)N[C@@H](CCCNC(=N)N)C(=O)N1CCC[C@H]1C(=O)NCC(=O)NCC(=O)N[C@H](C(=O)N[C@H](C(=O)N[C@@H](CCCNC(=N)N)C(=O)N[C@@H](CCCCN)C(=O)N[C@@H](CC(N)=O)C(=O)N[C@@H](Cc1ccccc1)C(=O)N[C@H](C(=O)N1CCC[C@H]1C(=O)N[C@H](C(=O)N[C@@H](CC(=O)O)C(=O)N[C@H](C(=O)NCC(=O)N1CCC[C@H]1C(=O)N[C@@H](Cc1ccccc1)C(=O)N[C@@H](C)C(=O)N[C@@H](Cc1ccccc1)C(N)=O)C(C)C)[C@@H](C)O)C(C)C)C(C)C)C(C)C)[C@@H](C)O)C(C)C
B29: SEQ ID NO 858 (peptide)
peptide: Ac-WVTHRLAGLLPRSGGVVRKNFVPTDVGPFAF-NH2
B30: SEQ ID NO 872 (peptide)
peptide: Ac-[1Nal]VTH[Cit]LAGLLS[Cit]SGGVVRKNFVPTDVGPFAF-NH2
SMILES: CC(=O)N[C@@H](Cc1cccc2ccccc12)C(=O)N[C@H](C(=O)N[C@H](C(=O)N[C@@H](Cc1c[nH]cn1)C(=O)N[C@@H](CCCNC(N)=O)C(=O)N[C@@H](CC(C)C)C(=O)N[C@@H](C)C(=O)NCC(=O)N[C@@H](CC(C)C)C(=O)N[C@@H](CC(C)C)C(=O)N[C@@H](CO)C(=O)N[C@@H](CCCNC(N)=O)C(=O)N[C@@H](CO)C(=O)NCC(=O)NCC(=O)N[C@H](C(=O)N[C@H](C(=O)N[C@@H](CCCNC(=N)N)C(=O)N[C@@H](CCCCN)C(=O)N[C@@H](CC(N)=O)C(=O)N[C@@H](Cc1ccccc1)C(=O)N[C@H](C(=O)N1CCC[C@H]1C(=O)N[C@H](C(=O)N[C@@H](CC(=O)O)C(=O)N[C@H](C(=O)NCC(=O)N1CCC[C@H]1C(=O)N[C@@H](Cc1ccccc1)C(=O)N[C@@H](C)C(=O)N[C@@H](Cc1ccccc1)C(N)=O)C(C)C)[C@@H](C)O)C(C)C)C(C)C)C(C)C)[C@@H](C)O)C(C)C
B31: SEQ ID NO 860 (peptide)
peptide: Ac-WVTHRLAGLLSRPGGVVRKNFVPTDVGPFAF-NH2
B32: SEQ ID NO 870 (peptide)
peptide: Ac-WVTH[Cit]LAGLAS[Cit]SGGVVRKNFVPTDVGPFAF-NH2
B33: SEQ ID NO 956 (peptide)
peptide: Ac-WVTH[Cit]LAGLLS[Cit]SGGVVRKNFVPTDVG[Tic]FAF-NH2
B34: PEG-peptide of SEQ ID NO 860 (peptide)
peptide: Ac-WVTHRLAGLLSRPGGVVRKNFVPTDVGPFAF-NH2
modifications: also: PEG-conjugated, in most cases at Lys25
B35: PEG-peptide of SEQ ID NO 868 (peptide)
peptide: Ac-WVTH[Cit]LAGLLSRPGGVVRKNFVPTDVGPFAF-NH2
modifications: also: PEG-conjugated, in most cases at Lys25
B36: PEG-peptide of SEQ ID NO 869 (peptide)
peptide: Ac-WVTH[Cit]LAGLASRPGGVVRKNFVPTDVGPFAF-NH2
modifications: also: PEG-conjugated, in most cases at Lys25
B37: PEG-peptide of SEQ ID NO 870 (peptide)
peptide: Ac-WVTH[Cit]LAGLAS[Cit]SGGVVRKNFVPTDVGPFAF-NH2
modifications: also: PEG-conjugated, in most cases at Lys25
B38: SEQ ID NO 952 (peptide)
peptide: WVTHXLAGLLSXSGGVVXKNXVXTDVGPXAF
modifications: Ac-WVTH[Cit]LAGLLS[Cit]SGGVV[hArg]KN[pI-Phe]V[Oic]TDVGP[pI-Phe]AF-NH2
B39: SEQ ID NO 960 (peptide)
peptide: B38 peptide with X21F, X23P
modifications: Ac-WVTH[Cit]LAGLLS[Cit]SGGVV[hArg]KNFVPTDVGP[1-Nal]AF-NH2
B40: SEQ ID NO 962 (peptide)
peptide: B5 peptide with R12X, F29X
modifications: Ac-WVTH[Cit]LAGLLS[Cit]SGGVVRKNFVPTDVGP[Tic]AF-NH2

Molecular target: CGRP1 receptor (CRLR/RAMP1 complex) of human neuroblastoma SK-N-MC cells (human, UniProt Q16602 23-461; O60894 27-148)
Sequence (Q16602 23-461, chain 1 of 2): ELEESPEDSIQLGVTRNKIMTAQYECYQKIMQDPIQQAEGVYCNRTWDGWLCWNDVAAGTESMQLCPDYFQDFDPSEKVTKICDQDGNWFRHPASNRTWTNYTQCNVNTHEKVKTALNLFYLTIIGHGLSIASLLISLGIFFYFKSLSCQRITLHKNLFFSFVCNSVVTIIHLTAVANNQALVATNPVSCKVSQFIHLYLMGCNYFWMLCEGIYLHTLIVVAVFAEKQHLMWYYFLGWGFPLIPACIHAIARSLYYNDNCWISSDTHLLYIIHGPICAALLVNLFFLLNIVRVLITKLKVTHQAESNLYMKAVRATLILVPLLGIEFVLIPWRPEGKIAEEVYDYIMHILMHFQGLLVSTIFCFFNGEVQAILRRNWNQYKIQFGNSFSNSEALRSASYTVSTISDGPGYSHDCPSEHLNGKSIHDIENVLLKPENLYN
Sequence (O60894 27-148, chain 2 of 2): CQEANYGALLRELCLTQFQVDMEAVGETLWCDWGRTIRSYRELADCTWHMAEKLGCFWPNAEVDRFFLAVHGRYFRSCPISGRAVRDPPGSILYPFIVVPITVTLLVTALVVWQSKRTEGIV
Experiment: cell-based or functional assay

PEG-peptide IC50	Peptide IC50	Binder
6.21 nM	–	B1
–	1.41 nM	B2
–	0.47 nM	B3
0.46 nM	–	B4
–	0.57 nM	B5
2.08 nM	–	B6
–	2.1 nM	B7
–	0.44 nM	B8
–	0.58 nM	B9
0.96 nM	–	B10
–	0.57 nM	B11
0.36 nM	–	B12
0.37 nM	–	B13
0.33 nM	–	B14
60.5 nM	–	B15
–	2.57 nM	B16
–	0.41 nM	B17
–	3.22 nM	B18
–	3.45 nM	B19
–	3.57 nM	B20

PEG-peptide IC50	Peptide IC50	Binder
–	3.85 nM	B21
3.22 nM	–	B22
–	2.73 nM	B23
–	0.53 nM	B24
–	3 nM	B25
5 nM	–	B26
–	4.32 nM	B27
–	6.19 nM	B28
–	1.3 nM	B29
–	1.6 nM	B30
–	1.42 nM	B31
–	16.1 nM	B32
–	3.02 nM	B33
16.7 nM	–	B34
108 nM	–	B35
565 nM	–	B36
> 1000 nM	–	B37
–	2.34 nM	B38
–	2.24 nM	B39
–	10.1 nM	B40

From patent US20080020978A1 (Amgen, published 2008)
